The text below walks through data of paper PMC12444478, “Structural insights into the substrate transport mechanism of the amino acid transporter complex” (The Journal of Biological Chemistry, 2025).

For this test, the target named is T1, 4F2hc (CD98hc, SLC3A2), isoform b (human, UniProt P08195-5 1-631).
T1 construct: Purified as a complex with m1 (LAT1); also called heavy chain; source: HEK293F, coexpressed with LAT1, purified (anti-FLAG resin, nickel-NTA, size-exclusion chromatography in GDN)
T1 sequence (looked up): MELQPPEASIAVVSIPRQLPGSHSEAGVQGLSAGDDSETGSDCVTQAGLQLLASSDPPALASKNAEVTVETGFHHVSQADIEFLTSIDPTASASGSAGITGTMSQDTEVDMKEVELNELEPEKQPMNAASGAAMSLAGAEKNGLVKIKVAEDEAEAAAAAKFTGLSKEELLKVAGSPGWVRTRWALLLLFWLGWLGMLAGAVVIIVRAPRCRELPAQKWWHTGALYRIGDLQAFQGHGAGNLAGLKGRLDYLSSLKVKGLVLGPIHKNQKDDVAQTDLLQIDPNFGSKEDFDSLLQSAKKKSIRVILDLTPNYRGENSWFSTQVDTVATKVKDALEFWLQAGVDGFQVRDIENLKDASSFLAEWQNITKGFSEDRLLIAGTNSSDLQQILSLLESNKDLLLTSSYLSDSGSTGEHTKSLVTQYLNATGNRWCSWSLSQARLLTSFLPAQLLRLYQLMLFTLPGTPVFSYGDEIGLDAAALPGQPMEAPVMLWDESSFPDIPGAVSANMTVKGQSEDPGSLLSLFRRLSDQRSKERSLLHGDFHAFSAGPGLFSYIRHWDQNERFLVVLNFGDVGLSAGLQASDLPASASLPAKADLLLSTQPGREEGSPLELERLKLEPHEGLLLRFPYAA
Nature of the test: cryo-EM structure; LAT1-4F2hc coexpressed and purified as a complex in 25 mM Hepes pH 7.5, 150 mM NaCl, 0.01% GDN; incubated with 10 mM Leu, 1 mM Trp, 1 mM L-DOPA or 1 mM Tyr for 2 h; four structures. To be noted: both partners purified.

B1: L-type amino acid transporter 1 (LAT1, SLC7A5) (natural protein)
chain: not shown
notes: LAT1 (SLC7A5), human, full-length cDNA NM_003486.7 in pCAG vector; Purified as a complex with m2 (4F2hc); also called light chain; source: HEK293F, coexpressed with 4F2hc, purified (anti-FLAG resin, nickel-NTA, size-exclusion chromatography in GDN)
Regarding B1, the binding result was “binds”.
